According to US20240199755A1, “ANTAGONISTS AND AGONISTS OF THE TRANSFERRIN RECEPTOR-2 FOR USE IN THE TREATMENT OF DISEASES OF THE BONE” (Kymab Limited, priority 2018, published 2024):
Entries after “also recorded” stand apart in the source; their conditions may differ.

System: BMP-2-induced heterotopic ossification
Experiment: BMP-2-induced heterotopic ossification (HO) mouse model
Type: in vivo, mice
Settings: for Heterotopic ossification (bone volume by μCT): after two weeks
Experimental: Male and female C57BL/6 mice are used for the HO model. The HO is triggered by injecting BMP-2 into the muscle (Wosczyna et al. 2012).
All the mice are fed with standard feed and water ad libitum and are kept in groups of five mice per cage. The mice are exposed to a 12-hour light/dark cycle and air cooling to 23° C. (no special pathogen-free room). Enrichment is provided in the form of cardboard houses and bedding material. The mice are randomly divided into the different treatment groups and the assays are subsequently carried out as blind experiments.
The HO is examined by means of treatment using 2.5 μl of a 1 mg/ml recombinant BMP-2 solution (Thermo Fisher Scientific) or 2.5 μl of a 1 mg/ml Tfr2-ECD mixed with 47.5 μl Matrigel (BD Bioscience) at 0° C. For combination treatment, 2.5 of a 1 mg/ml recombinant BMP-2 solution is mixed with 2.5 μl of a 1 mg/ml Tfr2-ECD and 45 μl Matrigel. The Matrigel mixtures are injected into the musculus tibialis anterior of 10-week-old female wild-type mice. The legs are examined after two weeks.
The bone microarchitecture is analyzed using vivaCT40 (Scanco Medical, Switzerland). The entire lower leg bones are measured at a resolution of 10.5 μm using X-rays of 70 kVp, […] and at an integration time of 200 s. Predefined scripts from Scanco are used to analyze the bone (#1).
Heterotopic ossification (HO): The HO model was performed according to Wosczyna et al^32. Briefly, 2.5 μl of 1 mg/ml recombinant BMP-2 (Thermo Fisher) or 2.5 μl of 1 mg/ml Tfr2-ECD were mixed with 47.5 μl matrigel (BD Bioscience) on ice. For the local combination treatment, 2.5 μl BMP-2 were mixed with 2.5 μl Tfr2-ECD and 45 μl matrigel. The matrigel-mixtures were injected into the midbelly of the tibialis anterior muscle of 10-week-old female WT and Tfr2-deficient mice. Some mice were treated daily with palovarotene through oral gavage using a previously published protocol^58. Palovarotene (Hycultec) was dissolved in DMSO and diluted 1:4 with corn oil. Mice received palovarotene at a dose of 100 μg/mouse for the first five days and 50 μg/mouse for the remainder of the experiment (days 6-14). Two weeks after BMP-2 injection, the legs were harvested for analysis. This experiment was performed three times with 3-11 mice per group. To analyze the chondrogenic phase of HO, we performed an experiment as described above that was terminated on day 8. This was performed once with 4-6 mice per group.
For systemic Tfr2-ECD treatment, WT mice were treated every other day with Tfr2-ECD intraperitoneally for two weeks. Mice received 250 μg Tfr2-ECD (10 mg/kg BW) per injection for the first 10 days after BMP-2/matrigel injection into the muscle and 125 μg per injection (5 mg/kg BW) for the remaining time. This experiment was performed once with 8-10 mice per group. Drop-weight HO: This experiment was performed according to Liu et al. with minor modifications^65. Female 10-12-week-old WT mice were anesthetized and placed on a ridge of a plastic container over which the right leg was bent so the femur was lying horizontally. Mice received an injection of 1 μg BMP-2 mixed in 50 μl matrigel. Afterwards, a stainless-steel ball of 16 g (16 mm diameter) was dropped from a distance of 80 cm height onto the quadriceps muscle. Mice either received a single dose of 1 μg Tfr2-ECD, which was co-injected with the BMP-2/matrigel mixture, or palovarotene (Hycultec), which was administered daily by oral gavage. Palovarotene was dissolved in DMSO and diluted 1:4 with corn oil. […]

[1] = WT mice, day 8, systemic treatment, Safranin O staining

B1: Tfr2-ECD: Recombinant full-length extracellular domain (aa 103-798) of murine Tfr2, His-tagged, expressed in Sf9 insect cells (protein, listed as Mus musculus)
chain: RGSCQACGDSVLVVDEDVNPEDSGRTTLYWSDLQAMFLRFLGEGRMEDTIRLTSLRERVAGSARMATLVQDILDKLSRQKLDHVWTDTHYVGLQFPDPAHANTLHWVDADGSVQEQLPLEDPEVYCPYSATGNATGKLVYAHYGRSEDLQDLKAKGVELAGSLLLVRVGITSFAQKVAVAQDFGAQGVLIYPDPSDFSQDPHKPGLSSHQAVYGHVHLGTGDPYTPGFPSFNQTQFPPVESSGLPSIPAQPISADIADQLLRKLTGPVAPQEWKGHLSGSPYRLGPGPDLRLVVNNHRVSTPISNIFACIEGFAEPDHYVVIGAQRDAWGPGAAKSAVGTAILLELVRTFSSMVSNGFRPRRSLLFISWDGGDFGSVGATEWLEGYLSVLHLKAVVYVSLDNSVLGDGKFHAKTSPLLVSLIENILKQVDSPNHSGQTLYEQVALTHPSWDAEVIQPLPMDSSAYSFTAFAGVPAVEFSFMEDDRVYPFLHTKEDTYENLHKMLRGRLPAVVQAVAQLAGQLLIRLSHDHLLPLDFGRYGDVVLRHIGNLNEFSGDLKERGLTLQWVYSARGDYIRAAEKLRKEIYSSERNDERLMRMYNVRIMRVEFYFLSQYVSPADSPFRHIFLGQGDHTLGALVDHLRMLRADGSGAASSRLTAGLGFQESRFRRQLALLTWTLQGAANALSGDVWNIDNNF
modifications: His tag
notes: Recombinant full-length extracellular domain (aa 103-798) of murine Tfr2, His-tagged, expressed in Sf9 insect cells
Heterotopic ossification (bone volume by μCT) (Tfr2-/- mice, co-application of Tfr2-ECD with BMP-2): significantly inhibited | Number of chondrocytes (chondrogenic phase of HO) [1]: suppressed | Production of cartilage (chondrogenic phase of HO) [1]: suppressed | Heterotopic ossification (bone volume by μCT) (WT mice, local Tfr2-ECD co-injected with BMP-2 into the muscle): significant reduction in bone formation; also recorded: completely abrogated; also recorded: reduced; also recorded: inhibited | Heterotopic ossification (bone volume by μCT) (WT mice, systemic treatment, i.p. injections every other day): reduced; also recorded: inhibited
